# Results taken from patent US20260049138A1 (Chugai, published 2026).
# T1: human CD154 (human, UniProt P29965 113-261, limits assumed, biotin-labeled)
# T1 construct: also called biotin-labeled human CD154; biotinylated human CD154
# T1 sequence (looked up): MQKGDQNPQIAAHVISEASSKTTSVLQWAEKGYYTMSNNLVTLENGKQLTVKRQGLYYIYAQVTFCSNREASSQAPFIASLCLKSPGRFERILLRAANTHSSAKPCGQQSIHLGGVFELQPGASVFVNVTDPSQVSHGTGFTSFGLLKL
# Biological target: CD3ε homodimer protein (human, UniProt P07766 23-126, limits assumed)
# Assay: SPR Biacore T200, CD3e homodimer on chip
# Procedure: An appropriate amount of CD3ε homodimer protein was immobilized onto Sensor chip CM4 (GE Healthcare Japan Corp.) by the amine coupling method. Then, the antibody having an appropriate concentration was injected thereto as an analyte and allowed to interact with the CD3ε homodimer protein on the sensor chip. Then, the sensor chip was regenerated by the injection of 10 mmol/L glycine-HCl (pH 1.5). The assay was conducted at 25° C., and HBS-EP+ (GE Healthcare Japan Corp.) was used as a running buffer. […] Each parameter was calculated using Biacore T200 Evaluation Software (GE Healthcare Japan Corp.).
# Sequence of CD3ε homodimer protein (P07766 23-126 limits assumed): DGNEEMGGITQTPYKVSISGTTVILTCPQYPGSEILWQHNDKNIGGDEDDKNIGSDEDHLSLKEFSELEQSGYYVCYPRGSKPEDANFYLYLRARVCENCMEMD
row,KD ratio (KD of CE115HA000/KD of altered form),Binder
1,0.88,"CE115HA000 A52aE one-arm antibody (antibody, human IgG1, kappa, L234A L235A, N297A, name in Kabat numbering) heavy: QVQLVESGGGVVQPGRSLRLSCAASGFTFSNAWMHWVRQAPGKGLEWVAQIKEKSNNYATYYAESVKGRFTISRDDSKNSLYLQMNSLKTEDTAVYYCRYVHYGAYYGVDAWGQGTTVTVSSASTKGPSVFPLAPSSKSTSGGTAALGCLVKDYFPEPVTVSWNSGALTSGVHTFPAVLQSSGLYSLSSVVTVPSSSLGTQTYICNVNHKPSNTKVDKKVEPKSCDKTHTCPPCPAPEAAGGPSVFLFPPKPKDTLMISRTPEVTCVVVDVSHEDPEVKFNWYVDGVEVHNAKTKPREEQYASTYRVVSVLTVLHQDWLNGKEYKCKVSNKALPAPIEKTISKAKGQPREPQVYTLPPSRCELTKNQVSLSCAVKGFYPSDIAVEWESNGQPENNYKTTPPVLDSDGSFFLVSKLTVDKSRWQQGNVFSCSVMHEALHNHYTQKSLSLSPDYKDDDDK EPKSSDKTHTCPPCPAPELLGGPSVFLFPPKPKDTLMISRTPEVTCVVVDVSHEDPEVKFNWYVDGVEVHNAKTKPREEQYNSTYRVVSVLTVLHQDWLNGKEYKCKVSNKALPAPIEKTISKAKGQPREPQVCTLPPSRDELTKNQVSLWCLVKGFYPSDIAVEWESNGQPENNYKTTPPVLDSDGSFFLYSKLTVDKSRWQQGNVFSCSVMHEALHNRYTQKSLSLSP light: DIVMTQSPLSLPVTPGEPASISCRSSQSLVHSNRNTYLHWYQQKPGQAPRLLIYKVSNRFSGVPDRFSGSGSGTDFTLKISRVEAEDVGVYYCGQGTQVPYTFGQGTKLEIKRTVAAPSVFIFPPSDEQLKSGTASVVCLLNNFYPREAKVQWKVDNALQSGNSQESVTEQDSKDSTYSLSSTLTLSKADYEKHKVYACEVTHQGLSSPVTKSFNRGEC"

# Biological target: T1, human CD154
# Assay: ECL competition, CD3ε[+]: CD3ε homodimer added as competitor [1]
# Procedure: Next, each obtained IgG was evaluated for its binding to CD3 and human CD154 at the same time by the competition method (electrochemiluminescence method (ECL method)).
# A TBST solution containing 0.5% BSA (referred to as a blocking solution; the TBST solution was TBS (manufactured by Takara Bio Inc.) supplemented with 0.1% Tween 20) was added at 150 μL/well to streptavidin plate (MSD K.K.), and the plate was incubated at room temperature for 1 hour or longer. After removal of the blocking solution, each well was washed three times with 250 μL of a TBST solution. The antibody-antigen complex solution was added thereto at 50 μL/well, and the plate was incubated at room temperature for 1 hour so that the biotinylated antigen-antibody-detection sulfo-tag antibody complex solution bound via the biotinylated antigen to the streptavidin plate. After removal of the antibody-antigen complex solution, each well was washed three times with a TBST solution, and a solution of 4×READ buffer (MSD K.K.) diluted 2-fold with water was added thereto at 150 μL/well, followed by the detection of the luminescence signal of the sulfo-tag using Sector Imager 2400 (MSD K.K.).
row,relative ECL reaction (to no antigen coating),Binder
1,4,"154R3A01#4 one-arm antibody (antibody, human IgG1, kappa, L234A L235A, N297A, As m48) heavy: QVQLVESGGGLVQPGRSLRLSCAASGFTFSNAWMHWVRQAPGKGLEWVAQIKDRVNQYANYYAECVKGRFTISRDDSKNSIYLQMNSLKTEDTAVYYCRYVHYGLTGYFSGQGGVDAWGQGTTVTVSSASTKGPSVFPLAPSSKSTSGGTAALGCLVKDYFPEPVTVSWNSGALTSGVHTFPAVLQSSGLYSLSSVVTVPSSSLGTQTYICNVNHKPSNTKVDKKVEPKSCDKTHTCPPCPAPEAAGGPSVFLFPPKPKDTLMISRTPEVTCVVVDVSHEDPEVKFNWYVDGVEVHNAKTKPREEQYASTYRVVSVLTVLHQDWLNGKEYKCKVSNKALPAPIEKTISKAKGQPREPQVYTLPPSRCELTKNQVSLSCAVKGFYPSDIAVEWESNGQPENNYKTTPPVLDSDGSFFLVSKLTVDKSRWQQGNVFSCSVMHEALHNHYTQKSLSLSPDYKDDDDK EPKSSDKTHTCPPCPAPELLGGPSVFLFPPKPKDTLMISRTPEVTCVVVDVSHEDPEVKFNWYVDGVEVHNAKTKPREEQYNSTYRVVSVLTVLHQDWLNGKEYKCKVSNKALPAPIEKTISKAKGQPREPQVCTLPPSRDELTKNQVSLWCLVKGFYPSDIAVEWESNGQPENNYKTTPPVLDSDGSFFLYSKLTVDKSRWQQGNVFSCSVMHEALHNRYTQKSLSLSP light: DIVMTQSPLSLPVTPGEPASISCRSSQSLVHSNRNTYLHWYQQKPGQAPRLLIYKVSNRFSGVPDRFSGSGSGTDFTLKISRVEAEDVGVYYCGQGTQVPYTFGQGTKLEIKRTVAAPSVFIFPPSDEQLKSGTASVVCLLNNFYPREAKVQWKVDNALQSGNSQESVTEQDSKDSTYSLSSTLTLSKADYEKHKVYACEVTHQGLSSPVTKSFNRGEC"
2,16,"154R3F02#2 one-arm antibody (antibody, human IgG1, kappa, L234A L235A, N297A, As m48) heavy: QVQLVESGGGLVQPGRSLRLSCAASGFTFSNAWMHWVRQAPGKGLEWVAQIKDRASGYNNYYAESVKGRFTISRDDSKNSIYLQMNSLKTEDTAVYYCRYVHYAQSVSAFFQYGVDAWGQGTTVTVSSASTKGPSVFPLAPSSKSTSGGTAALGCLVKDYFPEPVTVSWNSGALTSGVHTFPAVLQSSGLYSLSSVVTVPSSSLGTQTYICNVNHKPSNTKVDKKVEPKSCDKTHTCPPCPAPEAAGGPSVFLFPPKPKDTLMISRTPEVTCVVVDVSHEDPEVKFNWYVDGVEVHNAKTKPREEQYASTYRVVSVLTVLHQDWLNGKEYKCKVSNKALPAPIEKTISKAKGQPREPQVYTLPPSRCELTKNQVSLSCAVKGFYPSDIAVEWESNGQPENNYKTTPPVLDSDGSFFLVSKLTVDKSRWQQGNVFSCSVMHEALHNHYTQKSLSLSPDYKDDDDK EPKSSDKTHTCPPCPAPELLGGPSVFLFPPKPKDTLMISRTPEVTCVVVDVSHEDPEVKFNWYVDGVEVHNAKTKPREEQYNSTYRVVSVLTVLHQDWLNGKEYKCKVSNKALPAPIEKTISKAKGQPREPQVCTLPPSRDELTKNQVSLWCLVKGFYPSDIAVEWESNGQPENNYKTTPPVLDSDGSFFLYSKLTVDKSRWQQGNVFSCSVMHEALHNRYTQKSLSLSP light: DIVMTQSPLSLPVTPGEPASISCRSSQSLVHSNRNTYLHWYQQKPGQAPRLLIYKVSNRFSGVPDRFSGSGSGTDFTLKISRVEAEDVGVYYCGQGTQVPYTFGQGTKLEIKRTVAAPSVFIFPPSDEQLKSGTASVVCLLNNFYPREAKVQWKVDNALQSGNSQESVTEQDSKDSTYSLSSTLTLSKADYEKHKVYACEVTHQGLSSPVTKSFNRGEC"
3,20,"154R4B03#4 one-arm antibody (antibody, human IgG1, kappa, L234A L235A, N297A, As m48) heavy: QVQLVESGGGLVQPGRSLRLSCAASGFTFSNAWMHWVRQAPGKGLEWVAQIKDKQSQYANYYAPSVKGRFTISRDDSKSSIYLQMNSLKTEDTAVYYCRYVHYQSTSYSFYQGGVDAWGQGTTVTVSSASTKGPSVFPLAPSSKSTSGGTAALGCLVKDYFPEPVTVSWNSGALTSGVHTFPAVLQSSGLYSLSSVVTVPSSSLGTQTYICNVNHKPSNTKVDKKVEPKSCDKTHTCPPCPAPEAAGGPSVFLFPPKPKDTLMISRTPEVTCVVVDVSHEDPEVKFNWYVDGVEVHNAKTKPREEQYASTYRVVSVLTVLHQDWLNGKEYKCKVSNKALPAPIEKTISKAKGQPREPQVYTLPPSRCELTKNQVSLSCAVKGFYPSDIAVEWESNGQPENNYKTTPPVLDSDGSFFLVSKLTVDKSRWQQGNVFSCSVMHEALHNHYTQKSLSLSPDYKDDDDK EPKSSDKTHTCPPCPAPELLGGPSVFLFPPKPKDTLMISRTPEVTCVVVDVSHEDPEVKFNWYVDGVEVHNAKTKPREEQYNSTYRVVSVLTVLHQDWLNGKEYKCKVSNKALPAPIEKTISKAKGQPREPQVCTLPPSRDELTKNQVSLWCLVKGFYPSDIAVEWESNGQPENNYKTTPPVLDSDGSFFLYSKLTVDKSRWQQGNVFSCSVMHEALHNRYTQKSLSLSP light: DIVMTQSPLSLPVTPGEPASISCRSSQSLVHSNRNTYLHWYQQKPGQAPRLLIYKVSNRFSGVPDRFSGSGSGTDFTLKISRVEAEDVGVYYCGQGTQVPYTFGQGTKLEIKRTVAAPSVFIFPPSDEQLKSGTASVVCLLNNFYPREAKVQWKVDNALQSGNSQESVTEQDSKDSTYSLSSTLTLSKADYEKHKVYACEVTHQGLSSPVTKSFNRGEC"
4,18,"154R3B01#1 one-arm antibody (antibody, human IgG1, kappa, L234A L235A, N297A, As m48) heavy: QVQLVESGGGLVQPGRSLRLSCAASGFTFSSAWMHWVRQAPGKGLEWVAQIKDKQNQYNAYYAESVKGRFTISRDDSKNSIYLQMNSLKTEDTAVYYCRYVHYATSDGFLPYFGVDAWGQGTTVTVSSASTKGPSVFPLAPSSKSTSGGTAALGCLVKDYFPEPVTVSWNSGALTSGVHTFPAVLQSSGLYSLSSVVTVPSSSLGTQTYICNVNHKPSNTKVDKKVEPKSCDKTHTCPPCPAPEAAGGPSVFLFPPKPKDTLMISRTPEVTCVVVDVSHEDPEVKFNWYVDGVEVHNAKTKPREEQYASTYRVVSVLTVLHQDWLNGKEYKCKVSNKALPAPIEKTISKAKGQPREPQVYTLPPSRCELTKNQVSLSCAVKGFYPSDIAVEWESNGQPENNYKTTPPVLDSDGSFFLVSKLTVDKSRWQQGNVFSCSVMHEALHNHYTQKSLSLSPDYKDDDDK EPKSSDKTHTCPPCPAPELLGGPSVFLFPPKPKDTLMISRTPEVTCVVVDVSHEDPEVKFNWYVDGVEVHNAKTKPREEQYNSTYRVVSVLTVLHQDWLNGKEYKCKVSNKALPAPIEKTISKAKGQPREPQVCTLPPSRDELTKNQVSLWCLVKGFYPSDIAVEWESNGQPENNYKTTPPVLDSDGSFFLYSKLTVDKSRWQQGNVFSCSVMHEALHNRYTQKSLSLSP light: DIVMTQSPLSLPVTPGEPASISCRSSQSLVHSNRNTYLHWYQQKPGQAPRLLIYKVSNRFSGVPDRFSGSGSGTDFTLKISRVEAEDVGVYYCGQGTQVPYTFGQGTKLEIKRTVAAPSVFIFPPSDEQLKSGTASVVCLLNNFYPREAKVQWKVDNALQSGNSQESVTEQDSKDSTYSLSSTLTLSKADYEKHKVYACEVTHQGLSSPVTKSFNRGEC"
5,18,"154R4B03#1 one-arm antibody (antibody, human IgG1, kappa, L234A L235A, N297A, As m48) heavy: QVQLVESGGGLVQPGRSLRLSCAASGFTFSNAWMHWVRQAPGKGLEWVAQIKDKQSQYANYYAPSVKGRFTISRDDSKNSIYLQMNSLKTEDTAVYYCRYVHYQSTSYSFYQGGVDAWGQGTTVTVSSASTKGPSVFPLAPSSKSTSGGTAALGCLVKDYFPEPVTVSWNSGALTSGVHTFPAVLQSSGLYSLSSVVTVPSSSLGTQTYICNVNHKPSNTKVDKKVEPKSCDKTHTCPPCPAPEAAGGPSVFLFPPKPKDTLMISRTPEVTCVVVDVSHEDPEVKFNWYVDGVEVHNAKTKPREEQYASTYRVVSVLTVLHQDWLNGKEYKCKVSNKALPAPIEKTISKAKGQPREPQVYTLPPSRCELTKNQVSLSCAVKGFYPSDIAVEWESNGQPENNYKTTPPVLDSDGSFFLVSKLTVDKSRWQQGNVFSCSVMHEALHNHYTQKSLSLSPDYKDDDDK EPKSSDKTHTCPPCPAPELLGGPSVFLFPPKPKDTLMISRTPEVTCVVVDVSHEDPEVKFNWYVDGVEVHNAKTKPREEQYNSTYRVVSVLTVLHQDWLNGKEYKCKVSNKALPAPIEKTISKAKGQPREPQVCTLPPSRDELTKNQVSLWCLVKGFYPSDIAVEWESNGQPENNYKTTPPVLDSDGSFFLYSKLTVDKSRWQQGNVFSCSVMHEALHNRYTQKSLSLSP light: DIVMTQSPLSLPVTPGEPASISCRSSQSLVHSNRNTYLHWYQQKPGQAPRLLIYKVSNRFSGVPDRFSGSGSGTDFTLKISRVEAEDVGVYYCGQGTQVPYTFGQGTKLEIKRTVAAPSVFIFPPSDEQLKSGTASVVCLLNNFYPREAKVQWKVDNALQSGNSQESVTEQDSKDSTYSLSSTLTLSKADYEKHKVYACEVTHQGLSSPVTKSFNRGEC"
